This is an account of results in US20240327522A1 (Genentech, published 2024).

Bounds are passed on as bounds.

The target of assay [1] is human αvβ8 endogenously expressed on cells (human).
Assay [2] shares this target. Description: cell-based or functional assay.
Assay [3] addresses recombinant human αvβ8 protein (PARS-17102) (human). Kind of assay: SPR, Biacore T200, anti-murine Fc capture (murine Fc format), human αvβ8 analyte 0-50 nM, 37 C, 1:1 model (FIG. 10).
The target is the same in assay [4]. Kind of assay: SPR, Biacore kinetic screen at 37 °C, 1:1 binding fit; antibody as ligand, hu.aVb8-17102 as sample; in the presence of divalent cations according to.
Assay [5] concerns the target T1, recombinant human αvβ8 protein (PARS-17102) (human).
T1 construct: also called hu.aVb8.17102; not shown: C-terminal acid/basic coils and any purification tags
T1 alpha: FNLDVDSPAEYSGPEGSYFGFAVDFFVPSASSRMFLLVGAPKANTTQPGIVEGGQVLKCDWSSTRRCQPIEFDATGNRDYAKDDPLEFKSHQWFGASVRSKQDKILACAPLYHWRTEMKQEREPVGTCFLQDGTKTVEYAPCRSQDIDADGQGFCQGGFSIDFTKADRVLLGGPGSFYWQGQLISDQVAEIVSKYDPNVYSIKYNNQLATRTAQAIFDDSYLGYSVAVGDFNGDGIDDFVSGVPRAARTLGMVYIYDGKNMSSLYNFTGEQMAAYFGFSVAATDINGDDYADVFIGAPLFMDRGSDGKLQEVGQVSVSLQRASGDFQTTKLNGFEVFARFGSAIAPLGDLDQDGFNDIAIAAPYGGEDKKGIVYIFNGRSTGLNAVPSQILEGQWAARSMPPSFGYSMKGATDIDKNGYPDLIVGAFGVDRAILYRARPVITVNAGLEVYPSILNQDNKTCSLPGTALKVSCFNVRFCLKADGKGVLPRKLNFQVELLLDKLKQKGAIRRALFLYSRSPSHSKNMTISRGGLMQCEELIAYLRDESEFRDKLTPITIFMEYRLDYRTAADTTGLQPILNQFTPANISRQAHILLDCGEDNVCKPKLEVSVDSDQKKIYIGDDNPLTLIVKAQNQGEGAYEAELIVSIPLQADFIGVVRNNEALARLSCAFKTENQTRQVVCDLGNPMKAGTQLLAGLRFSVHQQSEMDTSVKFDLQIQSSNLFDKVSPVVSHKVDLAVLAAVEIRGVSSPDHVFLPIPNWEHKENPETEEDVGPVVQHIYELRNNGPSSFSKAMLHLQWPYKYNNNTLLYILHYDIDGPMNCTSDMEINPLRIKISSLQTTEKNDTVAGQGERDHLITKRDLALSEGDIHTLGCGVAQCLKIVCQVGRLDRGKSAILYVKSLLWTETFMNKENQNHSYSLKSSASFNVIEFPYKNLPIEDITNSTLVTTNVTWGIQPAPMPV
T1 beta: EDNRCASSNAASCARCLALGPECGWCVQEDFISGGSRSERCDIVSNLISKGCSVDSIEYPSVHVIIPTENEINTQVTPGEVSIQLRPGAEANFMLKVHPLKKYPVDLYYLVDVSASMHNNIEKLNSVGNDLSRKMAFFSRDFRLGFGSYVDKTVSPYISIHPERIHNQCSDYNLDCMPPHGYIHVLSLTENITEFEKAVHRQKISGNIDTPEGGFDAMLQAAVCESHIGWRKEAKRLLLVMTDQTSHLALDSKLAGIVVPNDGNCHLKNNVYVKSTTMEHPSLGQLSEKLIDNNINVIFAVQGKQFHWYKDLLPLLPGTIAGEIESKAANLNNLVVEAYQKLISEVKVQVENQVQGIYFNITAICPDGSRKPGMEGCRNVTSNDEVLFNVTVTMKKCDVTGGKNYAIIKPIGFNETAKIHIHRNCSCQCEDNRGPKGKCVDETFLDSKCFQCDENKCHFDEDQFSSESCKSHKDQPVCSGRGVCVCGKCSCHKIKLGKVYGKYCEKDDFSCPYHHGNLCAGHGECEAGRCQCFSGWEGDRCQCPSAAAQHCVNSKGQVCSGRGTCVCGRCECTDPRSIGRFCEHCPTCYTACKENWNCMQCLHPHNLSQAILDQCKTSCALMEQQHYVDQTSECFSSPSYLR
Kind of assay: SPR, Biacore T200, antibody captured on protein A chip, aVb8 as analyte, 37 C, 1:1 Langmuir model. As for the experimental part:
(§1) The binding affinity of the antibodies was determined by BIAcore™ T200 machine. For kinetics measurements, antibodies were captured on research grade protein A chip (Cytiva, USA) to achieve approximately 60 RU. Ten-fold serial dilutions of human, murine and cyno aVb8 were injected in the same running buffer as above at 37° C. with a flow rate of 100 μL/min. Association rates (ka) and dissociation rates (kd) were calculated using a 1:1 Langmuir binding model (BIAcore™ T200 Evaluation Software version 2.0). The equilibrium dissociation constant (KD) was calculated as the ratio kd/ka. […]

Assay [6] deals with T2, recombinant mouse αvβ8 protein (PARS-17103) (murine, UniProt P43406 31-988; Q0VBD0 43-681, limits assumed).
T2 construct: Made in house; also called mu.aVb8.17103
T2 sequence (P43406 31-988 limits assumed, chain 1 of 2): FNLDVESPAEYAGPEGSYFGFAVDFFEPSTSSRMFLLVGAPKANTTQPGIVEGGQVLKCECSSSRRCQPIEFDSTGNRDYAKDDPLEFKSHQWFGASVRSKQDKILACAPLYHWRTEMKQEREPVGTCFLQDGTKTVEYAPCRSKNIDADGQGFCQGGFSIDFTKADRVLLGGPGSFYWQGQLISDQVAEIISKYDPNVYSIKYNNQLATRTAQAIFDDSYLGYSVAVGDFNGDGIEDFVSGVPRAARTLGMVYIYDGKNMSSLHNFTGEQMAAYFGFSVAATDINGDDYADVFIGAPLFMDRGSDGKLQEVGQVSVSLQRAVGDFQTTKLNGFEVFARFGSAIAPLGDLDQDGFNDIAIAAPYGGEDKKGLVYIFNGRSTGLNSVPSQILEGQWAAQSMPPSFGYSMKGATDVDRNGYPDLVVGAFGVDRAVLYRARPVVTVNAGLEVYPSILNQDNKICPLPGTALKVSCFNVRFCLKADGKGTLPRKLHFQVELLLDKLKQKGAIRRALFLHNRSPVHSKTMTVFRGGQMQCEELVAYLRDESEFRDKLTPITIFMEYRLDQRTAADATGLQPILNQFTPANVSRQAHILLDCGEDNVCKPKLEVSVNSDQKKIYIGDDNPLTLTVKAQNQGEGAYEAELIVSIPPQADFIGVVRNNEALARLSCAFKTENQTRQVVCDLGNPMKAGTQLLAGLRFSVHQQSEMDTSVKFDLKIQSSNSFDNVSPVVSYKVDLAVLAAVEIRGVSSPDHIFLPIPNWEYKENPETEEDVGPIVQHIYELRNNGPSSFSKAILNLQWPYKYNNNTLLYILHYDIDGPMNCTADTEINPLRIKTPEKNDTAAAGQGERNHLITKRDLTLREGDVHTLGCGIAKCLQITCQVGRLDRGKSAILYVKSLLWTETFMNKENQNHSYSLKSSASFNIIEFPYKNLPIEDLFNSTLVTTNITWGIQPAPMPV
T2 sequence (Q0VBD0 43-681 limits assumed, chain 2 of 2): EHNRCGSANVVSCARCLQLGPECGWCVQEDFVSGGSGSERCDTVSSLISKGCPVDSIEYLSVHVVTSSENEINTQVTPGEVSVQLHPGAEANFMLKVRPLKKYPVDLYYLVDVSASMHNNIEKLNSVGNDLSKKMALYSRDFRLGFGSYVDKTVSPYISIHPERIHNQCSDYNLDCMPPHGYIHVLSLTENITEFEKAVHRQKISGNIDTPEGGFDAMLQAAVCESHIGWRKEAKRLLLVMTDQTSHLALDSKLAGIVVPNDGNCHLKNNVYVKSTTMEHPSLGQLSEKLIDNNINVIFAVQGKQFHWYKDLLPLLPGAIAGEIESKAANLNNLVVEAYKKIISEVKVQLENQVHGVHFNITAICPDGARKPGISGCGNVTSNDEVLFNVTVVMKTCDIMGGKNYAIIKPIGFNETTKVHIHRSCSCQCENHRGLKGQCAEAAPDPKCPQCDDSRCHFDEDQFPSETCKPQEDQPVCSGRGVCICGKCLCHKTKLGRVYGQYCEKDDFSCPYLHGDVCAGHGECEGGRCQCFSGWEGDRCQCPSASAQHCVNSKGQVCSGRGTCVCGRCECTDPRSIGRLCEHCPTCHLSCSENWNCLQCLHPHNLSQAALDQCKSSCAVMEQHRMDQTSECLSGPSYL
The description is as above. On the procedure:
as §1

The target in the next assay is T3, cyno.aVb8.13650 (cynomolgus, UniProt A0A2K5WCD3 31-992; G7P0S0 43-684).
T3 construct: Carries another lot/construct number than cyno.aVb8-19393; kept apart; also called cynomolgus αvβ8
The assay is described as above. On the procedure:
as §1

In assay [7] the target is T1, recombinant human αvβ8 protein …. Description: SPR, Biacore kinetic screen at 37 °C, 1:1 binding fit; antibody as ligand, hu.aVb8-17102 as sample; in the presence of divalent cations according to.
Assay [8] addresses recombinant human αvβ8 protein (PARS-17102) (human). Kind of assay: SPR, Biacore T200, anti-murine Fc capture (murine Fc format), human αvβ8 analyte 0-50 nM, 37 C, 1:1 model (FIG. 10); below the instrument's detection limit.
For assay [9], the target named is T1, recombinant human αvβ8 protein …. Kind of assay: SPR, Biacore kinetic screen at 37 °C, 1:1 binding fit flagged with a warning sign; antibody as ligand, hu.aVb8-17102 as sample; in the presence of divalent cations according to.

As to C6D4 mIgG2a.LALAPG (antibody), the IC50 of the TGFb1 reporter signal, co-culture of LN-229 cells with 3T3-Nano GARP/LTGFb1 reporter cells in assay [1] was 2.11 nM. In addition, in assay [2], the IC50 (nM), experiment #1: LN-229 + 3T3-Nano-human GARP/LTGFβ1 (WT) co-culture, NanoLuc reporter was determined as 0.63 nM; the IC50 (nM), experiment #2: LN-229 + 3T3-Nano-human GARP/LTGFβ1 (WT) co-culture, NanoLuc reporter turned out to be 1.45 nM; the IC50 (nM), experiment #3: LN-229 + 3T3-Nano-human GARP/LTGFβ1 (non-releasable, NR) co-culture, NanoLuc reporter was determined as 0.24 nM; the IC50 (nM), experiment #4: LN-229 + 3T3-Nano-human GARP/LTGFβ3 (WT) co-culture, NanoLuc reporter was 0.78 nM. In addition, in [3], the Kd worked out at 1.06 nM, the koff worked out at 9.3e-05 s⁻¹ and the kon turned out to be 87800 M⁻¹ s⁻¹. In assay [4], the Kd was found to be 3.8 nM, the koff amounted to 0.000266 s⁻¹ and the kon worked out at 69900 M⁻¹ s⁻¹.
In the case of ADWA11 mIgG2a.LALAPG (antibody), in assay [2], the IC50 (nM), experiment #1: LN-229 + 3T3-Nano-human GARP/LTGFβ1 (WT) co-culture, NanoLuc reporter was found to be 0.95 nM; the IC50 (nM), experiment #2: LN-229 + 3T3-Nano-human GARP/LTGFβ1 (WT) co-culture, NanoLuc reporter was 1.51 nM; the IC50 (nM), experiment #3: LN-229 + 3T3-Nano-human GARP/LTGFβ1 (non-releasable, NR) co-culture, NanoLuc reporter was determined as 0.34 nM; the IC50 (nM), experiment #4: LN-229 + 3T3-Nano-human GARP/LTGFβ3 (WT) co-culture, NanoLuc reporter amounted to 0.79 nM. In assay [3], the Kd worked out at 0.451 nM, the koff turned out to be 5.33e-05 s⁻¹ and the kon came out at 118000 M⁻¹ s⁻¹.
For Isotype control (antibody), in assay [2], the IC50 (nM), experiment #1: LN-229 + 3T3-Nano-human GARP/LTGFβ1 (WT) co-culture, NanoLuc reporter was over 333 nM; the IC50 (nM), experiment #2: LN-229 + 3T3-Nano-human GARP/LTGFβ1 (WT) co-culture, NanoLuc reporter was over 333 nM; the IC50 (nM), experiment #3: LN-229 + 3T3-Nano-human GARP/LTGFβ1 (non-releasable, NR) co-culture, NanoLuc reporter is over 333 nM; the IC50 (nM), experiment #4: LN-229 + 3T3-Nano-human GARP/LTGFβ3 (WT) co-culture, NanoLuc reporter was over 333 nM.

B1: Rb.aVb8-65 (antibody, V domains shown)
VH: QSVEESGGRLVTPGTPLTLTCTVSGIDLSNYAMIWVRQAPGKGLEWIGIISSSDRIWYASWVKGRFTISKTSSTTVDLQMTSLTTEDTATYFCSRSVSNSYFDGWNLWGPGTLVTVSS
VL: DIVMTQTPASVEAAVGGTVTIKCQASENINSLLAWYQQKPGQPPKLLIYRASTLASGVPSRFRGSGSGTQFTLTISDLECDDAATYYCQSNYGFTGSGAFFYGFGGGTEVVVE
notes: Recombinant rabbit monoclonal antibody expressed in Expi293 cells; also called rb.αvβ8-65; rabbit αvβ8-65
As for B1, the Kd came out at 0.7 nM in assay [5], 0.9 nM in [6], 1.94 nM with cyno.aVb8.13650 and 1.54 nM in [7]. The koff in [5] is 0.000131 s⁻¹; in assay [6], 0.000132 s⁻¹; with cyno.aVb8.13650, 0.000121 s⁻¹; in assay [7] it was 0.000349 s⁻¹. Besides, the kon in assay [5] amounted to 187000 M⁻¹ s⁻¹; in assay [6] it was 146000 M⁻¹ s⁻¹; with cyno.aVb8.13650 it was 62400 M⁻¹ s⁻¹; in assay [7] it was 227000 M⁻¹ s⁻¹.

B2: αvβ8-65 in the murine Fc format (antibody, V domains shown)
VH: EVQLLESGGGLVQPGGSLRLSCAASGIDLSNYAMIWVRQAPGKGLEWVGIISSSDRIWYASWVKGRFTISRDNSKNTLYLQMNSLRAEDTAVYYCSRSVSNSYFDGWNLWGQGTLVTVSS
VL: DIQMTQSPSSVSASVGDRVTITCQASENINSLLAWYQQKPGKAPKLLIYRASTLASGVPSRFSGSGSGTDFTLTISSLQPEDFATYYCQSNYGFTGSGAFFYGFGQGTKVEIK
With B2, in [3], the Kd was under 0.0258 nM and the kon amounted to 258000 M⁻¹ s⁻¹. In addition, the koff in assay [8] is under 1e-05 s⁻¹.

B3: Rb.aVb8-92 (antibody, V domains shown)
VH: QSVEESGGRLVTPGTPLTLTCTVSGFSLSSYAMGWVRQAPGKGLEWIGVIRKDDNTYYGNWAKGRFTISRTSTTVDLKMTSLTAADTATYFCARALNTYVGFPYFNIWGPGTLVTVSS
VL: AAVLTQTPSPVSAAVGGTVSISCQSIKSVGDNKWLAWYQQKPGQPPKLLIYDASDLASGVPSRFKGSGSRTQFTLTISDLQCDDAATYYCAGSVSSGDSGFGGGTEVVVA
notes: Recombinant rabbit monoclonal antibody expressed in Expi293 cells; also called rb.αvβ8-92; rabbit αvβ8-92
Turning to B3, the Kd in assay [5] came to 1.6 nM; in assay [6] it was 1.86 nM; with cyno.aVb8.13650, 6.91 nM; in assay [9], 671 nM. The koff in assay [5] was determined as 0.000164 s⁻¹; in assay [6], 0.000184 s⁻¹; with cyno.aVb8.13650 it was 0.000293 s⁻¹; in assay [9], 0.000777 s⁻¹. In addition, the kon in assay [5] is 102000 M⁻¹ s⁻¹; in assay [6], 98600 M⁻¹ s⁻¹; with cyno.aVb8.13650 it was 42400 M⁻¹ s⁻¹; in [9], 1160 M⁻¹ s⁻¹.
